Assay results as given in patent US20130344077A1 (VET THERAPEUTICS, published 2013).
Each block holds one binder with its values, some of them ahead of it.

Key:
[1] = biological target: target antigen of mab 231 on canine lymphoma cells (canine); assay: FACS on canine lymphoma cells positive for the mab 231 antigen, anti-mouse IgG secondary
[2] = biological target: target antigen of mab 231 on canine lymphoma cells (canine); assay: FACS on canine lymphoma cells positive for the mab 231 antigen, FITC anti-dog IgG secondary

- Binding (%) [1]: 74.2%
B1: murine anti-canine lymphoma monoclonal antibody mab 231 (ATCC HB-9401) (antibody, V domains shown)
VH: EVKLVESGGGLVQPGGSLKLSCATSGFTFSDYYMYWVRQTPEKRLEWVAYISNGGGSTYYPDTVKGRFTISRDNAKNTLYLQMSRLKSEDTAMYYCARHGGYYAMDYWGQGTSVTVSS
VL: DIQMNQSPSSLSASLGDTITITCHASQNINVWLSWYQQKPGNIPKLLIYKASNLHTGVPSRFSGSGSGTGFTLTISSLQPEDIATYYCQQGQSYPLTFGGGTKLEIK

- Binding (%) [2]: 27.2%
B2: VET118 VET218 anti-canine lymphoma antibody variant (mab 231 variable domains with canine FR4) (antibody)
light: DIQMNQSPSSLSASLGDTITITCHASQNINVWLSWYQQKPGNIPKLLIYKASNLHTGVPSRFSGSGSGTGFTLTISSLQPEDIATYYCQQGQSYPLTFGGGTHLTVLGQPKASPSVTLFPPSSEELGANKATLVCLISDFYPSGVTVAWKADGSPITQGVETTKPSKQSNNKYAASSYLSLTPDKWKSHSSFSCLVTHEGSTVEKKVAPAECS
heavy: EVKLVESGGGLVQPGGSLKLSCATSGFTFSDYYMYWVRQTPEKRLEWVAYISNGGGSTYYPDTVKGRFTISRDNAKNTLYLQMSRLKSEDTAMYYCARHGGYYAMDYWGQGTSVTVSSASTTAPSVFPLAPSCGSTSGSTVALACLVSGYFPEPVTVSWNSGSLTSGVHTFPSVLQSSGLYSLSSMVTVPSSRWPSETFTCNVAHPASKTKVDKPVPKRENGRVPRPPDCPKCPAPEMLGGPSVFIFPPKPKDTLLIARTPEVTCVVVDLDPEDPEVQISWFVDGKQMQTAKTQPREEQFNGTYRVVSVLPIGHQDWLKGKQFTCKVNNKALPSPIERTISKARGQAHQPSVYVLPPSREELSKNTVSLTCLIKDFFPPDIDVEWQSNGQQEPESKYRTTPPQLDEDGSYFLYSKLSVDKSRWQRGDTFICAVMHEALHNHYTQKSLSHSPGK
